Data as given in patent US20140105889A1 (published 2014).
Numbering of substitutions follows the chain as printed. Numbers in names are those of the source.

What was measured:
human FcγRIIIa(F) [1] = target: T1, human FcγRIIIa(F) (human, UniProt P08637 17-208, limits assumed); experiment: SPR (Biacore), captured antibody, FcgR as analyte, HBS-EP+, 25 C; bound amount corrected for captured antibody, relative to GpH7-G1d/GpL16-k0
T1 construct: also called hFcgRIIIa(F); allotype F158
T1 sequence (P08637 other isoform, or with tags, fused parts or gaps limits assumed): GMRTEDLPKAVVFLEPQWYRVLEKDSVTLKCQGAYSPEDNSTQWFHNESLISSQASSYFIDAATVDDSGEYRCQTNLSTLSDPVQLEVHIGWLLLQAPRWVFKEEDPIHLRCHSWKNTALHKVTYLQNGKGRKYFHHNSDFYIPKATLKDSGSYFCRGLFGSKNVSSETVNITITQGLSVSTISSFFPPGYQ
Description: (§1) Interaction between each modified antibody and Fcγ receptor prepared in the manner described above was analyzed using the Biacore T100 (GE Healthcare), Biacore T200 (GE Healthcare), Biacore A100 or Biacore 4000. HBS-EP+ (GE Healthcare) was used for the running buffer, and measurements were carried out at 25° C. The chips used were chips in which antigen peptides, Protein A (Thermo Scientific), Protein A/G (Thermo Scientific) or Protein L (ACTIGEN or BioVision) were immobilized on the Series S Sensor Chip CM5 (GE Healthcare) or Series S Sensor Chip CM4 (GE Healthcare) by amine coupling, or chips in which preliminarily biotinylated antigen peptides were allowed to interact and then immobilized on the Series S Sensor Chip SA (certified) (GE Healthcare). The target antibodies were captured on these sensor chips, Fcγ receptor diluted with the running buffer was allowed to interact, followed by measurement of the amount of bound antibody. The amounts bound were compared between antibodies. However, since the amount of Fcγ receptor bound depends on the amount of captured antibody, the values used for comparison were first corrected by dividing the amount of Fcγ receptor bound by the captured amount of each antibody. Through reaction with 10 mM glycine-HCl at pH 1.5, the sensor chips were regenerated by washing off antibody captured on the sensor chips and used repeatedly.

human FcγRIIIa(F) [2] = target: T2, human FcγRIIIa(F) (human, UniProt P08637 17-208, limits assumed); experiment: SPR (Biacore), captured antibody, FcγR analyte; bound/captured amount vs control x100
T2 construct: also called FcgRIIIaF; FcγRIIIa allotype F158
Description: as §1

human FcγRIIb [3] = target: T3, human FcγRIIb (human, UniProt P31994 43-217, limits assumed); experiment: SPR KD for FcγRIIb of parent IL6R-B3/IL6R-L divided by that of this variant
T3 construct: also called FcγIIB; hFcgRIIb
T3 sequence: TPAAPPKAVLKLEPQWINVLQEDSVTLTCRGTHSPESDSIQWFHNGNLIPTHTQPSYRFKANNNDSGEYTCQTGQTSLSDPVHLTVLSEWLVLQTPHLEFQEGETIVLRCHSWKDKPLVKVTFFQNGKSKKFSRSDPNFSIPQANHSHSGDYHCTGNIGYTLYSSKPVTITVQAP
Excerpt: (§2) Furthermore, KD(IIaR)/KD(IIb) and KD(IIaH)/KD(IIb) in the table respectively represent the value obtained by dividing the KD value of each variant for FcγRIIaR by the KD value of each variant for FcγRIIb, and the value obtained by dividing the KD value of each variant for FcγRIIaH by the KD value of each variant for FcγRIIb.

human FcγRIIb [4] = target: T3, human FcγRIIb; experiment: ratio of this variant's SPR KD for FcγRIIaH to its KD for FcγRIIb
Excerpt: as §2

human FcγRIIb [5] = target: T3, human FcγRIIb; experiment: ratio of this variant's SPR KD for FcγRIIaR to its KD for FcγRIIb
Excerpt: as §2

human FcγRIIb [6] = target: T3, human FcγRIIb; experiment: SPR (Biacore), captured antibody, FcγR as analyte, 25 C
Excerpt: as §2

FcγRIIa type H [7] = target: T4, FcγRIIa type H (human, UniProt P12318 36-217); experiment: SPR (Biacore), captured antibody, FcγR as analyte, method of Example 14
T4 construct: also called FcγRIIaH; FcγRIIa(H)
T4 sequence: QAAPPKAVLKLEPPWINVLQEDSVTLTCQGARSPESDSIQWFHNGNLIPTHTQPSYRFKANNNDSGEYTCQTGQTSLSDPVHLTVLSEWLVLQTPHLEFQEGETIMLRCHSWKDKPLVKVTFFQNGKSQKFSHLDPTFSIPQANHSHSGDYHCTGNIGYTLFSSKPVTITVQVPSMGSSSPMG

FcγRIIb [8] = target: T5, FcγRIIb (human, UniProt P31994 43-217, limits assumed); experiment: ratio of SPR KD values; parent polypeptide is IL6R-B3/IL6R-L
T5 construct: also called FcγIIB; FcgRIIb
T5 sequence: T3 sequence
Excerpt: as §2

FcγRIIb [9] = target: T5, FcγRIIb; experiment: ratio of SPR KD values of this variant (FcγRIIaR over FcγRIIb)
Excerpt: as §2

FcγRIIb [10] = target: T5, FcγRIIb; experiment: ratio of SPR KD values of this variant (FcγRIIaH over FcγRIIb)
Excerpt: as §2

[11] = target: T6, human FcγRIIa type H (allotype H131) (human, UniProt P12318 36-217); experiment: SPR (Biacore), antibody captured on the chip, FcγR as analyte
T6 construct: also called FcγRIIaH; FcγRIIa(H)
T6 sequence: T4 sequence

[12] = target: T7, human FcγRIIa type R (allotype R131) (human, UniProt P12318 36-217); experiment: as above
T7 construct: also called FcγRIIaR; FcγRIIa(R)
T7 chain: T4 sequence with H133R

human FcγRIIb [13] = target: T8, human FcγRIIb (human, UniProt P31994 43-217); experiment: as above
T8 construct: also called FcγIIB
T8 sequence: T3 sequence

human FcγRIa = target: T9, human FcγRIa (human, UniProt P12314 16-292, limits assumed); experiment: as above
T9 construct: also called CD64

human FcγRIIb [14] = target: T8, human FcγRIIb; experiment: SPR (Biacore); KD of parent IL6R-B3/IL6R-L for FcγRIIb divided by KD of the variant for FcγRIIb
Excerpt: as §2

FcγRIIIa type V = target: T10, FcγRIIIa type V (human, UniProt P08637 17-208, limits assumed); experiment: SPR (Biacore), captured antibody, FcγR as analyte, method of Example 14
T10 construct: also called FcγRIIIaV; FcγRIIIa(V)

FcγRIIb [15] = target: T5, FcγRIIb; experiment: as above
FcγRIa [16] = target: T11, FcγRIa (human, UniProt P12314 16-292, limits assumed); experiment: as above
T11 construct: also called CD64; FcgRIa
T11 sequence (P12314 16-292 limits assumed): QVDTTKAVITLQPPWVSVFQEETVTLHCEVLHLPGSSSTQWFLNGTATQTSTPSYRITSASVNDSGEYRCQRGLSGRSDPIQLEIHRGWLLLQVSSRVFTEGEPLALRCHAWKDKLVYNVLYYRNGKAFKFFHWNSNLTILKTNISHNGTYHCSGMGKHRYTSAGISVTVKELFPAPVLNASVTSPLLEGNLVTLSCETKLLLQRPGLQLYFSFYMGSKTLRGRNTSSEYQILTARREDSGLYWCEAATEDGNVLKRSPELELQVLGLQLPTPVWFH

FcγRIIb [17] = target: T12, FcγRIIb (human, UniProt P31994 43-217, limits assumed); experiment: SPR (Biacore); ratio against the parent IL6R-B3/IL6R-L
T12 construct: Soluble analyte in Biacore; also called FcgRIIb; FcγIIB
T12 sequence: T3 sequence
Description: (§3) Next, interaction between these antibodies and FcγR was analyzed kinetically using the Biacore T100 (GE Healthcare). The interaction was measured at a temperature of 25° C. using HBS-EP+ (GE Healthcare) for the running buffer. The Series S Sensor Chip CM5 (GE Healthcare) was used after immobilizing Protein A by amine coupling. […] Antibody captured on the chip was washed by allowing 10 mM glycine-HCl (pH 1.5) to react following measurement. The chip regenerated in this manner was used repeatedly. The dissociation constant KD (mol/L) was calculated from the association rate constant ka (L/mol/s) and dissociation rate constant kd (1/s) as calculated by global-fitting the measurement results with a 1:1 Langmuir binding model using the Biacore

FcγRIa [18] = target: T13, FcγRIa (human, UniProt P12314 16-292, limits assumed); experiment: SPR (Biacore), antibody captured on chip, FcγR as analyte, method of Example 14
T13 construct: Soluble analyte in Biacore; also called FcgRIa; CD64
T13 sequence (P12314 16-292 limits assumed): as above
Description: as §3

FcγRIIa type R = target: T14, FcγRIIa type R (human, UniProt P12318 36-217); experiment: as above
T14 construct: Soluble analyte in Biacore; also called FcγRIIaR; FcγRIIa(R)
T14 chain: T4 sequence with H133R
Description: as §3

FcγRIIa type H [19] = target: T15, FcγRIIa type H (human, UniProt P12318 36-217); experiment: as above
T15 construct: Soluble analyte in Biacore; also called FcγRIIaH; FcγRIIa(H)
T15 sequence: T4 sequence
Description: as §3

FcγRIIb [20] = target: T12, FcγRIIb; experiment: as above
Description: as §3

mouse FcγRIV = target: T16, mouse FcγRIV (mouse); experiment: SPR (Biacore), antibody captured on Protein L, mouse FcγR as analyte, pH 7.4, 25 C
T16 construct: Bought soluble receptor; also called mFcgRIV; mFcgR IV
Description: Binding activity between the antibodies and mouse FcγRI, FcγRII, FcγRIII and FcγRIV (R&D Systems, Sin θ Biological) (hereinafter referred to as mouse FcγRs) was evaluated using the Biacore T100 or T200 (GE Healthcare). The antibodies being tested were captured by Protein L (ACTIGEN) that was immobilized in suitable amounts on the CM4 Sensor Chip (GE Healthcare) by amine coupling. Next, the diluted mouse FcγRs and a running buffer used as a blank were injected to allow interaction with the antibody captured on the sensor chip. A buffer consisting of 20 mmol/L ACES, 150 mmol/L NaCl and 0.05% (w/v) Tween 20 (pH 7.4) was used for the running buffer, and this buffer was also used to dilute the mouse FcγRs. 10 mmol/L glycine-HCl (pH 1.5) was used to regenerate the sensor chip. All measurements were carried out at 25° C.

mouse FcRn = target: T17, mouse FcRn (mouse, UniProt Q61559 22-297, limits assumed); experiment: SPR (Biacore), mouse FcRn, pH 7.0
T17 construct: Soluble analyte in Biacore; also called mFcRn
T17 sequence (looked up) 1: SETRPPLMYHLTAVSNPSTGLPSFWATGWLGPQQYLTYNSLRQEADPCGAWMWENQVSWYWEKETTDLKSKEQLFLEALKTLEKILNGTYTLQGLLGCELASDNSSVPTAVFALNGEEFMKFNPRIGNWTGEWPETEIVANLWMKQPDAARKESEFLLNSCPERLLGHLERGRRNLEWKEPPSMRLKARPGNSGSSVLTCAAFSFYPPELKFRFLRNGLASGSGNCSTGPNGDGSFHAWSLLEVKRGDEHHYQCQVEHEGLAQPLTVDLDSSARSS
T17 sequence (looked up) 2: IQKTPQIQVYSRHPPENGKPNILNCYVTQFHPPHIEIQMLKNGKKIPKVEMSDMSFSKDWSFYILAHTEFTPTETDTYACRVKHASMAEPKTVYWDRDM
Description: The binding between antibody and mouse FcRn was kinetically analyzed using Biacore T100 (GE Healthcare). An appropriate amount of protein L (ACTIGEN) was immobilized onto Sensor chip CM4 (GE Healthcare) by the amino coupling method, and the chip was allowed to capture an antibody of interest. Then, diluted FcRn solutions and running buffer (as a reference solution) were injected to allow mouse FcRn to interact with the antibody captured on the sensor chip. The running buffer used contains 50 mmol/l sodium phosphate, 150 mmol/l NaCl, and 0.05% (w/v) Tween20 (pH 7.4). FcRn was diluted using each buffer. The sensorchip was regenerated using 10 mmol/l glycine-HCl (pH 1.5). Assays were carried out exclusively at 25 degrees C. The association rate constant ka (1/Ms) and dissociation rate constant kd (1/s), both of which are kinetic parameters, were calculated based on the sensorgrams obtained in the assays, and the KD (M) of each antibody for mouse FcRn was determined from these values. Each parameter was calculated using Biacore T100 Evaluation Software (GE Healthcare).

T10 sequence (P08637 other isoform, or with tags, fused parts or gaps limits assumed): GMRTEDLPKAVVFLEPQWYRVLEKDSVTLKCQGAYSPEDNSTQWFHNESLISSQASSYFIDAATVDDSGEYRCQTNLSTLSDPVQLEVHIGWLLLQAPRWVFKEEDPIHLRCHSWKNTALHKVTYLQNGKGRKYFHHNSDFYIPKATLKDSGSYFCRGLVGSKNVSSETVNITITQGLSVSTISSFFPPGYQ
T9 sequence (P12314 16-292 limits assumed): as the sequence (P12314 16-292 limits assumed) above
T16 sequence (A0A0B4J1G0 21-203): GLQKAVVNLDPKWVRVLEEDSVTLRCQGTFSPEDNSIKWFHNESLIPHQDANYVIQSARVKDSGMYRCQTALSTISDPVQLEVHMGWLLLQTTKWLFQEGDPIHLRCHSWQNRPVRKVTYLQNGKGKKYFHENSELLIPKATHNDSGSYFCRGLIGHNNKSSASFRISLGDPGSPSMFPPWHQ

B1: GpH7-B3/GpL16-k0 (antibody, human IgG1)
heavy: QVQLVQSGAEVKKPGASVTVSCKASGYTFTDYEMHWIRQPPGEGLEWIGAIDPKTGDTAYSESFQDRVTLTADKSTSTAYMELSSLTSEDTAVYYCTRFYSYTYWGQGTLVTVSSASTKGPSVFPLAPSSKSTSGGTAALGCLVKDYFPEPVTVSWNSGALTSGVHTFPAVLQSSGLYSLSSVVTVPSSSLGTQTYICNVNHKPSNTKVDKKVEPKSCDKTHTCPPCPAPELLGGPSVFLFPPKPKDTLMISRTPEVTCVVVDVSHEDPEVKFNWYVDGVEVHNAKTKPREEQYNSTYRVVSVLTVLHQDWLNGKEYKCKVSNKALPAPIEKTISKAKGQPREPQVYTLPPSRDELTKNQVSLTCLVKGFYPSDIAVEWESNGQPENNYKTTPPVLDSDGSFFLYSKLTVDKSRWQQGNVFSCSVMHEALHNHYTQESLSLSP
light: DIVMTQSPLSLPVTPGEPASISCQASESLVHSNRNTYLHWYLQKPGQSPQLLIYKVSNRFSGVPDRFSGSGSGTDFTLKISRVEAEDVGVYYCSQNTHVPPTFGQGTKVEIE
notes: Anti-glypican-3 antibody, human IgG1 constant region B3
For B1, the “relative binding activity (bound amount / bound amount of GpH7-G1d/GpL16-k0 x 100)” value (human FcγRIIIa(F) [1]) was 88.

B2: GpH7-B3 D265S/GpL16-k0 (antibody, human IgG1)
heavy: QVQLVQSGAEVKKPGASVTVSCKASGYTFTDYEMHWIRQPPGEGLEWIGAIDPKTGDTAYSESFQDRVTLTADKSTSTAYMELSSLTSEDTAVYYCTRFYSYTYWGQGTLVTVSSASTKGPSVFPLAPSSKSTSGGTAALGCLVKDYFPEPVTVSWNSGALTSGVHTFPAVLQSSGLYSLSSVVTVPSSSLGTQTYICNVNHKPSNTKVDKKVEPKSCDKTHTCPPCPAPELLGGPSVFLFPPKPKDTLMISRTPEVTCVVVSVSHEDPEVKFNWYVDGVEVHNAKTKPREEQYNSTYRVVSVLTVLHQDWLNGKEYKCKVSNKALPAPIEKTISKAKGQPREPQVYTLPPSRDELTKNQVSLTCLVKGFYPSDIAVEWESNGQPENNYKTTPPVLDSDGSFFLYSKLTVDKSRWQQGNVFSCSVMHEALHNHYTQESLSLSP
light: B1 light
notes: B3 variant of anti-glypican-3 IgG1; substitution in EU numbering; also called B3 variant
In the case of B2, the relative binding activity (human FcγRIIIa(F) [2]) is reported as 2 % of GpH7-B3/GpL16-k0.

B3: IL6R-BP132/IL6R-L (antibody, human IgG1)
heavy: QVQLQESGPGLVKPSETLSLTCAVSGHSISHDHAWSWVRQPPGEGLEWIGFISYSGITNYNPSLQGRVTISRDNSKNTLYLQMNSLRAEDTAVYYCARSLARTTAMDYWGEGTLVTVSSASTKGPSVFPLAPSSKSTSGGTAALGCLVKDYFPEPVTVSWNSGALTSGVHTFPAVLQSSGLYSLSSVVTVPSSSLGTQTYICNVNHKPSNTKVDKKVEPKSCDKTHTCPPCPAPDLLGGDSVFLFPPKPKDTLMISRTPEVTCVVVDVSHEDPEVKFNWYVDGVEVHNAKTKPREEQYNSTYRVVSVLTVLHQDWLNGKEYKCKVSNAALPKPIEKTISKAKGQPREPQVYTLPPSRDELTKNQVSLTCLVKGFYPSDIAVEWESNGQPENNYKTTPPVLDSDGSFFLYSKLTVDKSRWQQGNVFSCSVMHEALHNHYTQESLSLSP
light: DIQMTQSPSSLSASVGDRVTITCRASQDISSYLNWYQQKPGKAPKLLIYYTSRLHSGVPSRFSGSGSGTDFTFTISSLQPEDIATYYCQQGNTLPYTFGQGTKVEIK
notes: copies: 2 + 2
With B3 the “KD(IIb) of the parent polypeptide/KD(IIb) of the altered polypeptide” value (from here on “KD(IIb)”) (human FcγRIIb [3]) was 6.4, the “KD (IIaH)/KD (IIb)” value (human FcγRIIb [4]) was 61.1 and the “KD (IIaR)/KD (IIb)” value (human FcγRIIb [5]) was 21.5. The Kd (human FcγRIIb [6]) was 270 nM.

B4: IL6R-BP149/IL6R-L (antibody, human IgG1)
heavy: B3 heavy with L236Y, G239D, Y298D
light: B3 light
notes: EU numbering
With B4 the Kd (FcγRIIa type H [7]) was 5400 nM, the “KD(IIb)” value (FcγRIIb [8]) was 53.1 and the “KD (IIaR)/KD (IIb)” value (FcγRIIb [9]) was 13. For the same binder, the “KD (IIaH)/KD (IIb)” value (FcγRIIb [10]) was 89.9.

B5: IL6R-BP200/IL6R-L (antibody, human IgG1)
heavy: B3 heavy with L236Y, G239D, P273G, A328D, K332R
light: B3 light
notes: Anti-human IL-6 receptor human IgG1 variant; uncertain; copies: 2 + 2
For B5, the Kd [11] was 4200 nM, the Kd [12] was 630 nM and the Kd (human FcγRIIb [13]) was 34 nM. The Kd (human FcγRIa) was 33 nM and the “KD(IIb)” value (human FcγRIIb [14]) was 91.2.

B6: IL6R-BP179/IL6R-L (antibody, human IgG1)
heavy: B3 heavy with D235E, G239D, P273G
light: B3 light
notes: EU numbering
B6 gave a Kd (FcγRIIIa type V) of 55000 nM, a Kd (FcγRIIa type H [7]) of 1600 nM and a Kd (FcγRIIb [15]) of 64 nM. The “KD (IIaR)/KD (IIb)” value (FcγRIIb [9]) was 16.7 and the “KD (IIaH)/KD (IIb)” value (FcγRIIb [10]) was 191.

B7: IL6R-BP180/IL6R-L (antibody, human IgG1)
heavy: B3 heavy with D235E, G239D, P273G, A328K
light: B3 light
notes: EU numbering
For B7, the Kd (FcγRIIa type H [7]) was 1600 nM, the Kd (FcγRIa [16]) was 96 nM and the “KD (IIaR)/KD (IIb)” value (FcγRIIb [9]) was 18.6. The “KD (IIaH)/KD (IIb)” value (FcγRIIb [10]) was 290.

B8: IL6R-BP214/IL6R-L (antibody, human IgG1)
heavy: B3 heavy with L236Y, G239D, Y298D, A328D
light: B3 light
notes: Anti-human IL-6 receptor IgG1 Fc variant
In the case of B8, the “KD(IIb)” value (FcγRIIb [17]) is reported as 26.2 fold, the Kd (FcγRIa [18]) is reported as 59 nM and the Kd (FcγRIIa type R) is reported as 1700 nM. The Kd (FcγRIIa type H [19]) was 9200 nM and the Kd (FcγRIIb [20]) was 120 nM.

B9: antibody with mPM1H-mIgG1 heavy chain and L(WT)-CK light chain (antibody)
heavy: DVQLQESGPVLVKPSQSLSLTCTVTGYSITSDHAWSWIRQFPGNKLEWMGYISYSGITTYNPSLKSRISITRDTSKNQFFLQLNSVTTGDTSTYYCARSLARTTAMDYWGQGTSVTVSSAKTTPPSVYPLAPGSAAQTNSMVTLGCLVKGYFPEPVTVTWNSGSLSSGVHTFPAVLQSDLYTLSSSVTVPSSTWPSETVTCNVAHPASSTKVDKKIVPRDCGCKPCICTVPEVSSVFIFPPKPKDVLTITLTPKVTCVVVDISKDDPEVQFSWFVDDVEVHTAQTQPREEQFNSTFRSVSELPIMHQDWLNGKEFKCRVNSAAFPAPIEKTISKTKGRPKAPQVYTIPPPKEQMAKDKVSLTCMITDFFPEDITVEWQWNGQPAENYKNTQPIMDTDGSYFVYSKLNVQKSNWEAGNTFTCSVLHEGLHNHHTEKSLSHSPGK
light: not shown
notes: Natural mouse IgG1 constant region; In the Biacore assays the heavy chain was paired with L(WT)-CK; also called mPM1-mIgG1; copies: 2 + 2
With B9 the “BINDING AMOUNT (RU)” value (mouse FcγRIV) was -3.5 RU and the binding result (mouse FcRn) was “no binding”.
